Test results published in the supplement of paper PMC12855868.

B1: library; numbered along this chain (parent)
chain: MAAAGGARLLRAASAVLGGPAGRWLHHAGSRAGSSGLLRNRGPGGSAEASRSLSVSARARSSSEDKITVHFINRDGETLTTKGKVGDSLLDVVVENNLDIDGFGACEGTLACSTCHLIFEDHIYEKLDAITDEENDMLDLAYGLTDRSRLGCQICLTKSMDNMTVRVPETVADARQSIDVGKTS

Variants of: B1
Experiment: scaled log2 fold change in cell abundance, elesclomol vs control (0 = silent mean, 1 = nonsense mean) (scaled log2 ratio); higher = higher viability under elesclomol (loss of FDX1 cuproptosis function)
Conditions: glucose 10 mM
Description: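 Deep mutational scan of full-length human FDX1: a pooled saturation-mutagenesis ORF library (every residue 2-184 mutated to all 19 amino acids plus stop, and silent codons where available) was expressed by lentivirus in FDX1-knockout ABC1 (14 days) or HEK293T (11 days) cells grown with elesclomol (ES) or DMSO control. Variant abundance came from ORF sequencing. The log2 fold change (ES vs control, mean of duplicates) was centred on the silent-variant mean (0) and scaled to the nonsense-variant mean (1). Higher values mean greater viability under ES, i.e. loss of FDX1 function in cuproptosis.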

[1] = with ABC1 FDX1 KO, elesclomol 5 nM, 14 days
[2] = with HEK293T FDX1 KO, elesclomol 40 nM, 11 days
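Further: variant abundance is its share of total variant reads in each endpoint sample, from next-generation sequencing of the integrated ORF PCR-amplified out of genomic DNA.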

Variant | scaled log2 fold change [1] | scaled log2 fold change [2]
G6P | 0.13 | 0.0736
G6W | 0.149 | 0.125
G6H | 0.23 | -1
G19F | 0.0719 | 0.185
G19E | 0.246 | -0.028
G19C | -0.0683 | -0.489
G19A | -0.167 | -0.0193
G19D | 0.233 | 0.874
R8I | 0.286 | 0.291
R8F | -0.388 | -0.798
R8M | -0.909 | -0.722
R8P | 0.109 | -0.395
R8S | 0.0501 | -0.479
R8E | 0.00393 | -0.121
R8A | 0.393 | 0.0204
R8W | 0.232 | 0.198
R8L | -0.0928 | -0.46
R8V | 0.395 | 0.881
R8D | 0.629 | -0.108
R8T | -0.656 | -0.382
R8Q | 0.308 | -0.248
R8Y | 0.407 | 0.189
R8N | 0.424 | -0.174
R8H | 0.292 | -0.336

Variant | scaled log2 fold change [1] | scaled log2 fold change [2]
R8C | 0.116 | 1.05
R8K | 0.28 | -0.152
A7E | 0.407 | –
A7T | 0.268 | –
A7G | 0.124 | -0.098
A7L | 0.0503 | 0.262
A7R | 0.122 | –
A7C | 0.0253 | 0.515
A7M | -0.526 | 0.892
A7Q | -0.0571 | –
A7D | 0.0271 | 0.843
A7F | 0.0991 | 0.612
A7H | 0.443 | 0.0712
A7N | -0.22 | 0.0857
A7V | -0.5 | 0.903
A7P | 0.316 | –
A7I | 0.0041 | -0.412
A7Y | 0.0823 | 0.506
A7S | 0.0146 | 0.154
A7K | 0.136 | -0.253
A7W | 0.0847 | 0.227
L10Q | 0.168 | 0.352
L10M | 0.337 | 0.282
L10D | 0.404 | 0.0467

Variant | scaled log2 fold change [1] | scaled log2 fold change [2]
L10T | 0.0611 | –
L10K | -0.11 | -0.14
L10H | 0.222 | -0.209
L10R | 0.663 | –
L10Y | 0.409 | 0.302
L10C | -0.592 | 0.0724
L10G | 0.705 | –
L10N | 0.128 | -0.352
L10V | 0.189 | -0.208
L10W | -0.304 | 0.734
L10I | -0.165 | 0.0157
L10E | 0.307 | -0.18
L10P | -0.379 | –
L10F | -0.0904 | -0.0054
L10S | 0.48 | 1.51
G18E | -0.165 | -0.152
G18F | 0.00932 | 0.79
G18A | -0.164 | 0.946
G18W | -0.00826 | -0.224
G18C | 0.14 | 0.923
G18Q | -0.43 | 0.977
G18R | 0.241 | -0.618
G18L | -0.655 | 0.123
G18Y | 0.0736 | 0.324

Variant | scaled log2 fold change [1] | scaled log2 fold change [2]
G18T | 0.225 | 0.0755
G18N | 0.408 | 0.649
G18H | 0.0847 | -0.242
G18P | 0.0386 | –
G18D | -0.233 | 0.58
G18M | 0.0948 | 0.156
G18I | 0.0859 | -0.0341
G18K | 0.322 | 0.179
G18S | 0.392 | 0.921
G18V | 0.494 | -0.0846
A15C | 0.107 | 0.017
A15P | 0.172 | 0.337
A15L | -0.153 | -0.301
A15N | -0.0399 | -0.856
A15W | 0.0842 | -0.229
A15T | 0.322 | -0.179
A15D | 0.405 | 0.431
A15G | -0.419 | 0.437
A15F | -0.0557 | -0.87
A15M | -0.0208 | 0.445
A15K | -0.22 | -0.495
A15I | -0.367 | -0.0209
A15S | 0.137 | 0.0336
A15Y | -0.822 | –

Variant | scaled log2 fold change [1] | scaled log2 fold change [2]
A15Q | 0.208 | 0.886
A15E | 0.311 | -0.231
A15H | 0.0941 | -0.215
A15V | 0.02 | –
A13M | -0.148 | 0.232
A13F | 0.0208 | 1.34
A13G | 0.519 | –
A13T | 0.0105 | -0.0204
A13Q | 0.0333 | 0.653
A13D | 0.543 | -0.132
A13K | 0.137 | -0.0857
A13R | -0.131 | 0.251
A13N | 0.0507 | -0.531
A13S | 0.157 | 0.0322
A13P | 0.188 | –
A13H | 0.0738 | -1.05
A13L | 0.256 | 0.56
A13C | 0.224 | 0.158
A13V | 0.347 | –
A13W | 0.54 | -0.436
A13E | 0.269 | 0.026
A13I | -0.0121 | 0.147
A13Y | -0.585 | 0.259
